Test [1] has as its target T1, Relipidated TF (UniProt P13726 33-295, limits assumed). The test is described as follows: cell-based or functional assay.
Test [2] addresses T2, Macaca mulatta TF on RF/6A cells (Macaca mulatta (protein sequence stated …, UniProt P13726 33-294 (human entry))).
T2 construct: Endogenous TF of the RF/6A cell line; also called TF-positive Macaca mulatta RF/6A cells; cynomolgus TF
T2 chain: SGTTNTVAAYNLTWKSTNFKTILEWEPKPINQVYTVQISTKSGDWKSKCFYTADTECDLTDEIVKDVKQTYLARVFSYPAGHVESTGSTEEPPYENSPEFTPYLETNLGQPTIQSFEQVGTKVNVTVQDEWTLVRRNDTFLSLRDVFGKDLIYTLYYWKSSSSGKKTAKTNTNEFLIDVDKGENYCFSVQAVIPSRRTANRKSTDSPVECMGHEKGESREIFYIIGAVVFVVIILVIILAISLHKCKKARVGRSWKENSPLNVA
The test is described as follows: flow cytometry, IgG1 titrated on TF-positive Macaca mulatta RF/6A cells, 4-parameter fit. (In general: In flow cytometry, cells or beads pass a laser one at a time.)
Experimental: After 2 washes, dead cells were labeled with TO-PRO-3 Iodide (ThermoFisher Scientific) and samples were analyzed on a CytoFLEX flow cytometer (Beckman Coulter, Brea, CA, USA) or Novocyte flow cytometer (ACEA Biosciences, San Diego, CA, USA). The median fluorescence intensities (MFIs) at each dilution were plotted and cell EC₅₀'s were derived using a 4-parameter binding model in Prism (GraphPad, La Jolla, CA, USA).

In test [3] the target is T3, E. coli-derived TF (human (Example 17 does not restate the …, UniProt P13726 33-251)).
T3 construct: also called E. coli-derived TF-His; E. coli-derived TF protein
In words: protein ELISA, plate coated with E. coli-derived TF-His, antibody titrated, HRP secondary, luminescence. On the technique in general: ELISA stands for enzyme-linked immunosorbent assay.
Experimental: (§1) Plates coated with Expi293- or E. coli-derived TF-His were incubated with increasing concentrations of antibodies.

In test [4] the target is T4, Expi293-derived TF-His (human (Example 17 does not restate the …, UniProt P13726 33-251)).
T4 construct: Glycosylated TF ECD-His6 from Expi293 cells; also called Expi293-derived TF protein; TF ECD-His6
The test is described as follows: protein ELISA, plate coated with Expi293-derived TF-His, antibody titrated, HRP secondary, luminescence.
Experimental: as §1

In test [5] the target is T1, Relipidated TF. In words: cell-based or functional assay. This is another data set of the same source.
Test [6] has as its target T5, human Tissue Factor (TF) (human, UniProt P13726 33-295). In words: cell-based or functional assay.
Test [7] deals with T5, human Tissue Factor (TF). In words: flow cytometry, A431 cells; antibody at 100 nM; competitor 20 nM 25A-Alexa488.
Experimental: (§2) After another 1 hr incubation on ice, cells were washed, stained with a viability dye, and analyzed by flow cytometry. The Alexa488 fluorescence data from viable cells was summarized using median fluorescence intensity.
The target in test [8] is T5, human Tissue Factor (TF). The test is described as follows: cell-based or functional assay. The source holds these as a separate data set.
For test [9], the target named is T5, human Tissue Factor (TF). The test is described as follows: flow cytometry, MDA-MB-231 cells; competitor 20 nM FVII-Fc-Alexa488; antibody at 9.25 nM.
Experimental: as §2
In test [10] the target is T5, human Tissue Factor (TF). The test is described as follows: cell-based or functional assay. The source holds these as a separate data set.
The target in test [11] is T5, human Tissue Factor (TF). The test is described as follows: flow cytometry, MDA-MB-231 cells; competitor 20 nM FVII-Fc-Alexa488; antibody at 250 nM.
Experimental: as §2
The target in test [12] is T5, human Tissue Factor (TF). The test is described as follows: flow cytometry, A431 cells; antibody at 100 nM; competitor 20 nM 43Ea-Alexa488.
Experimental: as §2
Test [13] deals with T5, human Tissue Factor (TF). The test is described as follows: flow cytometry, MDA-MB-231 cells; competitor 20 nM FVII-Fc-Alexa488; antibody at 28 nM.
Experimental: as §2
Test [14] concerns the target T5, human Tissue Factor (TF). The test is described as follows: flow cytometry, MDA-MB-231 cells; competitor 20 nM FVII-Fc-Alexa488; antibody at 83 nM.
Experimental: as §2

B1: 39A (antibody, human IgG1, V domains shown)
VH: QVQLVQSGAEVKKPGSSVKVSCKASGGTFSSNAIGWVRQAPGQGLEWMGSIIPIIGFANYAQKFQGRVTITADESTSTAYMELSSLRSEDTAVYYCARDSGYYYGASSFGMDVWGQGTTVTVSS
VL: EIVMTQSPATLSVSPGERATLSCRASQSVSSNLAWYQQKPGQAPRLLIYGASTRATGIPARFSGSGSGTEFTLTISSLQSEDFAVYYCEQYNNLPLTFGGGTKVEIK
notes: Human IgG1; also called antibody designated 39A
As for B1, in test [1], the “% Peak IIa at 10 nM Ab (TGA with 10 min antibody pre-incubation)” value is 11%, the “% Peak IIa at 50 nM Ab (TGA with 10 min antibody pre-incubation)” value worked out at 8%, the “% Peak IIa at 100 nM Ab (TGA with 10 min antibody pre-incubation)” value was 6% and the “Lag Time at 10 nM Ab (TGA with 10 min antibody pre-incubation)” value was 20.9 min. Further, in test [1], the “Lag Time at 50 nM Ab (TGA with 10 min antibody pre-incubation)” value is 29 min, the “Lag Time at 100 nM Ab (TGA with 10 min antibody pre-incubation)” value is 32.1 min, the “Peak IIa at 10 nM Ab (TGA with 10 min antibody pre-incubation)” value was found to be 30 nM and the “Peak IIa at 50 nM Ab (TGA with 10 min antibody pre-incubation)” value turned out to be 21 nM. Also, in test [1], the “Peak IIa at 100 nM Ab (TGA with 10 min antibody pre-incubation)” value turned out to be 17 nM, the “ttPeak at 10 nM Ab (TGA with 10 min antibody pre-incubation)” value came out at 30.8 min, the “ttPeak at 50 nM Ab (TGA with 10 min antibody pre-incubation)” value was 39.7 min and the “ttPeak at 100 nM Ab (TGA with 10 min antibody pre-incubation)” value turned out to be 43.2 min. Besides, the midpoint of the response in test [2], the EC50, lay at 0.27 nM. Besides, it took 0.34 nM to reach a half-maximal effect in test [3] (EC50). In addition, it took 0.45 nM to reach a half-maximal effect in [4] (EC50). In test [5], the “% ETP at 10 nM Ab (TGA without antibody pre-incubation)” value came to 58%, the “% Peak IIa at 10 nM Ab (TGA without antibody pre-incubation)” value stood at 24%, the “% Peak IIa at 50 nM Ab (TGA without antibody pre-incubation)” value was 8% and the “% Peak IIa at 100 nM Ab (TGA without antibody pre-incubation)” value was 6%. In addition, in test [5], the “ETP at 10 nM Ab (TGA without antibody pre-incubation)” value was 1330 nM·min, the “Lag Time at 10 nM Ab (TGA without antibody pre-incubation)” value was found to be 12.4 min, the “Lag Time at 50 nM Ab (TGA without antibody pre-incubation)” value was determined as 33.1 min and the “Lag Time at 100 nM Ab (TGA without antibody pre-incubation)” value was 38.1 min. For the same molecule, in [5], the “Peak IIa at 10 nM Ab (TGA without antibody pre-incubation)” value stood at 84 nM, the “Peak IIa at 50 nM Ab (TGA without antibody pre-incubation)” value was 29 nM, the “Peak IIa at 100 nM Ab (TGA without antibody pre-incubation)” value turned out to be 22 nM and the “ttPeak at 10 nM Ab (TGA without antibody pre-incubation)” value was 20.7 min. For the same molecule, in test [5], the “ttPeak at 50 nM Ab (TGA without antibody pre-incubation)” value worked out at 43.2 min and the “ttPeak at 100 nM Ab (TGA without antibody pre-incubation)” value was 48.3 min.

B2: 54E (antibody, human IgG1, V domains shown)
VH: QVQLVQSGAEVKKPGASVKVSCKASGYTFANYYMHWVRQAPGQGLEWMGIINPSGGITVYAQKFQGRVTMTRDTSTSTVYMELSSLRSEDTAVYYCARGGSKVAALAFDIWGQGTMVTVSS
VL: DIQMTQSPSSLSASVGDRVTITCQASQDISNSLNWYQQKPGKAPKLLIYDASNLETGVPSRFSGSRSGTDFTFTISSLQPEDIATYYCQQYNFHPLTFGGGTKVEIK
notes: Human IgG1; also called antibody designated 54E
Turning to B2, the EC50 (in general, the concentration needed to bring the measured effect to its halfway point) was 1.28 nM in test [2], 0.38 nM in [3] and 0.96 nM in test [4].

B3: 25A (antibody, human IgG1, V domains shown)
VH: QVQLVQSGAEVKKPGASVKVSCKASGYTFDVYGISWVRQAPGQGLEWMGWIAPYNGNTNYAQKLQGRVTMTTDTSTSTAYMELRSLRSDDTAVYYCARDAGTYSPFGYGMDVWGQGTTVTVSS
VL: DIQMTQSPSTLSASVGDRVTITCRASQSISSWLAWYQQKPGKAPKLLIYKASSLESGVPSRFSGSGSGTEFTLTISSLQPDDFATYYCQQFQSLPPFTFGGGTKVEIK
notes: Human IgG1; also called antibody designated 25A
Consider B3, for which the EC50 was determined as 0.43 nM in test [2], 0.35 nM in [3] and 0.54 nM in [4].

B4: 25G1 (antibody, human IgG1, V domains shown)
VH: QVQLVQSGAEVKKPGASVKVSCKASGYTFRSYGISWVRQAPGQGLEWMGWVAPYSGNTNYAQKLQGRVTMTTDTSTSTAYMELRSLRSDDTAVYYCARDAGTYSPYGYGMDVWGQGTTVTVSS
VL: DIQMTQSPSTLSASVGDRVTITCRASHSIDSWLAWYQQKPGKAPKLLIYKASYLESGVPSRFSGSGSGTEFTLTISSLQPDDFATYYCQLFQSLPPFTFGGGTKVEIK
notes: Human IgG1; also called antibody designated 25G1
Consider B4, for which the EC50 was 0.27 nM in [2], 0.31 nM in test [3] and 0.42 nM in test [4].

B5: 25A3 (antibody, human IgG1, V domains shown)
VH: QVQLVQSGAEVKKPGASVKVSCKASGYTFDVYGISWVRQAPGQGLEWMGWIAPYSGNTNYAQKLQGRVTMTTDTSTSTAYMELRSLRSDDTAVYYCARDAGTYSPFGYGMDVWGQGTTVTVSS
VL: DIQMTQSPSTLSASVGDRVTITCQASQSINNWLAWYQQKPGKAPKLLIYKAYNLESGVPSRFSGSGSGTEFTLTISSLQPDDFATYYCQLFQSLPPFTFGGGTKVEIK
notes: Human IgG1; also called antibody designated 25A3
B5: the results for the EC50 in [2], in test [3] and in test [4] were 0.27 nM, 0.36 nM and 0.47 nM, respectively.

B6: 29D (antibody, human IgG1, V domains shown)
VH: QVQLVESGGGVVQPGRSLRLSCAASGFTFHSRGMHWVRQAPGKGLEWVAVITYDGINKYYADSVEGRFTISRDNSKNTLYLQMNSLRAEDTAVYYCARDGVYYGVYDYWGQGTLVTVSS
VL: not shown
notes: Human IgG1; also called antibody designated 29D
As for B6, in test [6], the “% GM-CSF at 2.56 nM antibody” value came to 38%, the “% GM-CSF at 6.4 nM antibody” value amounted to 15%, the “% GM-CSF at 16 nM antibody” value was 7% and the “% GM-CSF at 40 nM antibody” value amounted to 6%. Moreover, the “% GM-CSF at 100 nM antibody” value in test [6] was found to be 5%. Also, the “% 25A binding” value in test [7] worked out at 70%. Moreover, in test [8], the “% IL8 at 2.56 nM antibody” value was found to be 27%, the “% IL8 at 6.4 nM antibody” value came out at 6%, the “% IL8 at 16 nM antibody” value turned out to be 2% and the “% IL8 at 40 nM antibody” value is 2%. Moreover, the “% IL8 at 100 nM antibody” value in [8] stood at 1%. For the same molecule, the “% FVIIa” value in test [9] came to 6%. In test [10], the “% FXa at 12.5 nM antibody” value was 85%, the “% FXa at 25 nM antibody” value amounted to 77%, the “% FXa at 50 nM antibody” value worked out at 75% and the “% FXa at 100 nM antibody” value was 75%. Moreover, in test [11], the “% FVIIa” value turned out to be 3%. For the same molecule, in [12], the “% 43Ea binding” value is 64%. Also, in test [13], the “% FVIIa” value was 4%. In addition, the “% FVIIa” value in [14] is 3%.

B7: 29E (antibody, human IgG1, V domains shown)
VH: QVQLVESGGGVVQPGRSLRLSCAASGFTFRSYGMHWVRQAPGKGLEWVAVITYDGINKYYADSVEGRFTISRDNSKNTLYLQMNSLRAEDTAVYYCARDGVYYGVYDYWGQGTLVTVSS
VL: not shown
notes: Human IgG1; also called antibody designated 29E
Consider B7, for which the EC50 amounted to 0.53 nM in [2], 0.68 nM in test [3] and 0.98 nM in test [4].

B8: 29E (antibody, human IgG1, V domains shown)
VH: QVQLVESGGGVVQPGRSLRLSCAASGFTFRSYGMHWVRQAPGKGLEWVAVITYDGINKYYADSVEGRFTISRDNSKNTLYLQMNSLRAEDTAVYYCARDGVYYGVYDYWGQGTLVTVSS
VL: not shown
notes: as for B7
Take B8: in test [6], the “% GM-CSF at 2.56 nM antibody” value stood at 33%, the “% GM-CSF at 6.4 nM antibody” value stood at 9%, the “% GM-CSF at 16 nM antibody” value worked out at 5% and the “% GM-CSF at 40 nM antibody” value worked out at 6%. In addition, the “% GM-CSF at 100 nM antibody” value in test [6] was 6%. Further, the “% 25A binding” value in test [7] amounted to 96%. In test [8], the “% IL8 at 2.56 nM antibody” value was found to be 33%, the “% IL8 at 6.4 nM antibody” value is 5%, the “% IL8 at 16 nM antibody” value is 2% and the “% IL8 at 40 nM antibody” value was determined as 2%. Besides, in [8], the “% IL8 at 100 nM antibody” value was 2%. The “% FVIIa” value in test [9] was determined as 5%. In test [10], the “% FXa at 12.5 nM antibody” value stood at 81%, the “% FXa at 25 nM antibody” value was 68%, the “% FXa at 50 nM antibody” value amounted to 63% and the “% FXa at 100 nM antibody” value was found to be 66%. In addition, the “% FVIIa” value in test [11] came to 2%. In test [12], the “% 43Ea binding” value amounted to 85%. Also, the “% FVIIa” value in [13] came to 3%. The “% FVIIa” value in test [14] is 2%.
